Assay results taken from patent US20240043542A1 (published 2024).
Where a chain is given by its changes, count along the chain named.

T1: human B7-H4 on the cell surface (human, UniProt Q7Z7D3 25-282)
T1 sequence: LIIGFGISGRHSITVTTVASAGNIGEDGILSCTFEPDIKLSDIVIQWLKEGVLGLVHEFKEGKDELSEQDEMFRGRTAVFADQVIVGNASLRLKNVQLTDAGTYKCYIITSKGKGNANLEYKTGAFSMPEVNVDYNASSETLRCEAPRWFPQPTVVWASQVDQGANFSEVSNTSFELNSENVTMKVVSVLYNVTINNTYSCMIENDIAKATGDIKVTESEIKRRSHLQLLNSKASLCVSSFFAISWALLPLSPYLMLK

T2: mouse B7-H4 on the cell surface (mouse, UniProt Q7TSP5 25-257)
T2 construct: full-length, on transfected HEK293T cells
T2 sequence: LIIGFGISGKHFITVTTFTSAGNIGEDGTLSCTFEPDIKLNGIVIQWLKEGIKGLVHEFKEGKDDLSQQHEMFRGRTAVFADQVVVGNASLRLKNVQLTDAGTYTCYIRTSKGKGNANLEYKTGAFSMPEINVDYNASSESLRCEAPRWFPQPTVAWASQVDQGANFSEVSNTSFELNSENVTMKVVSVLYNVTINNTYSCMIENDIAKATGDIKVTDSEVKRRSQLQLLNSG

T3: cynomolgus monkey B7-H4 on the cell surface (cynomolgus monkey, UniProt Q7Z7D3 25-282 (human entry))
T3 construct: full-length, on transfected HEK293T cells
T3 chain: T1 sequence with L53I, F242L, S252A

T4: rat B7-H4 on the cell surface (rat, UniProt Q501W4 25-257)
T4 construct: full-length, on transfected HEK293T cells
T4 sequence: T2 sequence with R109H, Q228E

T5: cynomolgus monkey B7-H4 (recombinant, BLI) (cynomolgus monkey, UniProt Q7Z7D3 25-259 (human entry))
T5 construct: also called Cynomolgus B7-H4
T5 sequence: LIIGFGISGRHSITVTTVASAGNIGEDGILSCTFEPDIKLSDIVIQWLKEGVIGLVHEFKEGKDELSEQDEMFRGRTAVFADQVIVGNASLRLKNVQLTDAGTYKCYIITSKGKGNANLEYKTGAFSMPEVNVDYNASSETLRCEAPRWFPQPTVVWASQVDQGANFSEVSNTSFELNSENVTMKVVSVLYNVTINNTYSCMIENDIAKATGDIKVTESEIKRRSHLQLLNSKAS

T6: mouse B7-H4 (recombinant, BLI) (mouse, UniProt Q7TSP5 29-256, limits assumed)
T6 construct: also called murine B7-H4
T6 sequence: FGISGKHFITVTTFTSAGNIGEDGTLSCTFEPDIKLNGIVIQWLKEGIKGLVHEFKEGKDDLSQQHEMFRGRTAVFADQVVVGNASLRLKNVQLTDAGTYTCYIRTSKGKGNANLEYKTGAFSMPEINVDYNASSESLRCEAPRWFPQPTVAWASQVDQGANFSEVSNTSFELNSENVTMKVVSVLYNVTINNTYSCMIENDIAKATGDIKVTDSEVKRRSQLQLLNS

B1: B7-H4 antibody 20500 (antibody, human IgG1, kappa, V domains shown)
VH: QLQLQESGPGLVKPSETLSLTCTVSGGSIKSGSHYWGWIRQPPGKGLEWIGNIYYSGSTYYNPSLRSRVTISVDTSKNQFSLKLSSVTAADTAVYYCAREGSYPNWFDPWGQGTLVTVSS
VL: EIVMTQSPATLSVSPGERATLSCRASQSVSSNLAWYQQKPGQAPRLLIYGASTRATGIPARFSGSGSGTEFTLTISSLQSEDFAVYYCQQYHSFPFTFGGGTKVEIKR
notes: human IgG1/kappa
B2: B7-H4 antibody 20502.1 (antibody, human IgG1, kappa, V domains shown)
VH: B1 VH with H34Y, R66K, W106Q, T114I
VL: B1 VL
notes: human IgG1/kappa
B3: B7-H4 antibody 20501 (antibody, human IgG1, kappa, V domains shown)
VH: B1 VH with R66K, F107L
VL: B1 VL
notes: human IgG1/kappa
B4: B7-H4 antibody 15441 (antibody, human IgG1, kappa, V domains shown)
VH: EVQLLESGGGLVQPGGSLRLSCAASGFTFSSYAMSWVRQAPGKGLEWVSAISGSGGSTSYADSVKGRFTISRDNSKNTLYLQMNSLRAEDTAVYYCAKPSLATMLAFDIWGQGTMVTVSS
VL: DIQMTQSPSTLSASVGDRVTITCRASQSISSWLAWYQQKPGKAPKLLIYDASSLESGVPSRFSGSGSGTEFTLTISSLQPDDFATYYCQQSKSYPRTFGGGTKVEIKR
notes: human IgG1/kappa
B5: B7-H4 antibody 15503 (antibody, human IgG1, kappa, V domains shown)
VH: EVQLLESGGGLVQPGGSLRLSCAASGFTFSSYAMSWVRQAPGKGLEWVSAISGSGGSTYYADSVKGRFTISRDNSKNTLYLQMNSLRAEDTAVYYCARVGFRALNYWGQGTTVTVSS
VL: DIQLTQSPSSVSASVGDRVTITCRASQDISSWLAWYQQKPGKAPKLLIYAASSLQSGVPSRFSGSGSGTDFTLTISSLQPEDFATYYCQQATSYPPWTFGGGTKVEIKR
notes: human IgG1/kappa
B6: B7-H4 antibody 15461 (antibody, human IgG1, kappa, V domains shown)
VH: B1 VH with K30S, G32S, H34Y, R66K
VL: B1 VL
notes: human IgG1/kappa
B7: B7-H4 antibody 15465 (antibody, human IgG1, kappa, V domains shown)
VH: QVQLQESGPGLVKPSQTLSLTCTVSGGSISSGGYYWSWIRQHPGKGLEWIGNIYYSGSTYYNPSLKSRVTISVDTSKNQFSLKLSSVTAADTAVYYCARESSTISADFDLWGRGTLVTVSS
VL: DIQMTQSPSSVSASVGDRVTITCRASQGISRWLAWYQQKPGKAPKLLIYAASSLQSGVPSRFSGSGSGTDFTLTISSLQPEDFATYYCQQAHTFPYTFGGGTKVEIKR
notes: human IgG1/kappa

target: T1, human B7-H4 on the cell surface; experiment: cell-based or functional assay

Donor 1 Max IFNγ | Donor 2 Max IFNγ | Donor 3 Max IFNγ | Donor 4 Max IFNγ | aAPC Assay EC50 (IFNγ production) | Binder
821 pg/mL | 274 pg/mL | 118 pg/mL | 4030 pg/mL | 0.84 nM | B1
937 pg/mL | 304 pg/mL | 174 pg/mL | 4270 pg/mL | 0.79 nM | B2
850 pg/mL | 310 pg/mL | 136 pg/mL | 4490 pg/mL | 0.79 nM | B3

target: T2, mouse B7-H4 on the cell surface; experiment: flow cytometry, transfected HEK293T

Binder | binding result
B4 | no binding (tested: FOP 10; 100 nM antibody)
B5 | no binding (tested: FOP 10; 100 nM antibody)

target: T1, human B7-H4 on the cell surface; experiment: flow cytometry, SK-BR-3 cells
Experimental: (§1) Following incubation, cells were pelleted, washed and incubated with a secondary labeling antibody and samples were acquired on a flow cytometer. Data was analyzed using the FlowJo software and MFI was plotted vs. antibody concentration. The EC50 cell binding potency was calculated using nonlinear regression curve fit (GraphPad Prism).

EC50 | Binder
1.54 nM | B1
2.5 nM | B2
5.66 nM | B6
1.9 nM | B3
2.13 nM | B7
34.3 nM | B4

target: T1, human B7-H4 on the cell surface; experiment: flow cytometry, 100 nM, transfected HEK293T
Experimental: (§2) HEK293T cell lines were transfected to express full-length human, cynomolgus monkey, mouse, or rat B7-H4. In addition, the endogenous human B7-H4 expressing SK-BR-3 breast cancer cell line was used to assess the ability of the antibodies to bind B7-H4 expressed on the cell surface. 1×10⁵ parental HEK293T or transfected HEK293T cell lines were incubated with 100 nM of the B7-H4 antibodies. Following incubation, cells were pelleted, washed, and incubated with a secondary labeling antibody, and samples were acquired on a flow cytometer. Fold binding over the parental cell line (FOP) was calculated as follows: MFI transfected HKE293T cells/MFI parental HEK293T cells.

FOP (fold binding over the parental cell line) | Binder
182 fold | B1
200 fold | B2
333 fold | B6
205 fold | B3
626 fold | B7
67 fold | B4
289 fold | B5

target: T2, mouse B7-H4 on the cell surface; experiment: flow cytometry, 100 nM, transfected HEK293T
Experimental: as §2

FOP (fold binding over the parental cell line) | Binder
478 fold | B1
559 fold | B2
887 fold | B6
546 fold | B3
690 fold | B7

Target: T3, cynomolgus monkey B7-H4 on the cell …
Experiment: flow cytometry, 100 nM, transfected HEK293T
Experimental: as §2

FOP (fold binding over the parental cell line) | Binder
630 fold | B1
683 fold | B2
610 fold | B6
728 fold | B3
1320 fold | B7
877 fold | B5

target: T1, human B7-H4 on the cell surface; experiment: cell-based or functional assay; remark: another data set of the same source

Donor 1 Max IFNγ | Donor 2 Max IFNγ | Donor 3 Max IFNγ | Donor 4 Max IFNγ | aAPC Assay EC50 (IFNγ production) | Binder
312 pg/mL | 165 pg/mL | 1960 pg/mL | 987 pg/mL | 531 nM | B6
230 pg/mL | 134 pg/mL | 1520 pg/mL | 865 pg/mL | 4310 nM | B7

target: T4, rat B7-H4 on the cell surface; experiment: flow cytometry, transfected 293 cells
Experimental: as §1

EC50 | Binder
1.14 nM | B1
1.26 nM | B2
1.67 nM | B6
1.15 nM | B3
1.47 nM | B7

target: T2, mouse B7-H4 on the cell surface; experiment: flow cytometry, transfected 293 cells
Experimental: as §1

EC50 | Binder
4 nM | B1
5.57 nM | B2
6.37 nM | B6
4.67 nM | B3
5.34 nM | B7

Target: T3, cynomolgus monkey B7-H4 on the cell …
Experiment: flow cytometry, transfected 293 cells
Experimental: as §1

EC50 | Binder
3.38 nM | B1
4.94 nM | B2
6.77 nM | B6
3.89 nM | B3
4.9 nM | B7

target: T5, cynomolgus monkey B7-H4 (recombinant, …); experiment: BLI, antigen on Protein A tips;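 note: Anti-B7-H4 antibodies assessed for affinity toward the B7-H4 extracellular domain using biolayer interferometry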
Experimental: (§3) Binding affinities of anti-B7-H4 antibodies to B7-H4-extracellular domain (ECD) were determined by biolayer interferometry (BLI). […] Anti-B7-H4 antibodies were then evaluated for binding.

Kd | koff | kon | Binder
5.47 nM | 0.00229 s⁻¹ | 418000 M⁻¹ s⁻¹ | B1
2.64 nM | 0.00139 s⁻¹ | 528000 M⁻¹ s⁻¹ | B2
62.1 nM | 0.027 s⁻¹ | 434000 M⁻¹ s⁻¹ | B6
2.42 nM | 0.00246 s⁻¹ | 1.02e+06 M⁻¹ s⁻¹ | B3
51.1 nM | 0.0278 s⁻¹ | 544000 M⁻¹ s⁻¹ | B7
54.6 nM | 0.0727 s⁻¹ | 1.33e+06 M⁻¹ s⁻¹ | B4
6.32 nM | 0.0115 s⁻¹ | 1.82e+06 M⁻¹ s⁻¹ | B5

target: T6, mouse B7-H4 (recombinant, BLI); experiment: BLI, antigen on Protein A tips;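 note: Anti-B7-H4 antibodies assessed for affinity toward the B7-H4 extracellular domain using biolayer interferometry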
Experimental: as §3

Kd | koff | kon | binding result | Binder
8.25 nM | 0.00336 s⁻¹ | 408000 M⁻¹ s⁻¹ | – | B1
3.99 nM | 0.00207 s⁻¹ | 520000 M⁻¹ s⁻¹ | – | B2
55.7 nM | 0.017 s⁻¹ | 305000 M⁻¹ s⁻¹ | – | B6
3.35 nM | 0.00375 s⁻¹ | 1.12e+06 M⁻¹ s⁻¹ | – | B3
89.6 nM | 0.0265 s⁻¹ | 296000 M⁻¹ s⁻¹ | – | B7
– | – | – | no binding | B4
– | – | – | no binding | B5

target: T7, recombinant human B7-H4-huIgG1 (human); experiment: BLI, antigen on Protein A tips;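 note: Anti-B7-H4 antibodies assessed for affinity toward the B7-H4 extracellular domain using biolayer interferometry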
T7 construct: also called B7-H4-extracellular domain (ECD)
Experimental: as §3

Kd | koff | kon | Binder
5.97 nM | 0.00233 s⁻¹ | 391000 M⁻¹ s⁻¹ | B1
3.07 nM | 0.0015 s⁻¹ | 487000 M⁻¹ s⁻¹ | B2
62.9 nM | 0.024 s⁻¹ | 381000 M⁻¹ s⁻¹ | B6
2.56 nM | 0.00251 s⁻¹ | 980000 M⁻¹ s⁻¹ | B3
51.3 nM | 0.0248 s⁻¹ | 484000 M⁻¹ s⁻¹ | B7
7.15 nM | 0.00872 s⁻¹ | 1.22e+06 M⁻¹ s⁻¹ | B4
10.4 nM | 0.0205 s⁻¹ | 1.96e+06 M⁻¹ s⁻¹ | B5

target: T8, B7-H4 IgV-huIgG1 (human); experiment: SPR, antibody captured by anti-human Fab, antigen in flow
T8 construct: also called N-terminal domain of human B7-H4
Experimental: Briefly, anti-human Fab antibody was immobilized on a carboxyl-derivatized SPR chip surface, and anti-B7-H4 antibodies were captured on the resulting surface at 5 ug/ml for 30 seconds.

Kd | koff | kon | Binder
30.4 nM | 0.00519 s⁻¹ | 171000 M⁻¹ s⁻¹ | B6
17.3 nM | 0.00417 s⁻¹ | 241000 M⁻¹ s⁻¹ | B7
